Experimental data taken from patent US20200247855A1, “THERAPY AND DIAGNOSTICS” (OXFORD UNIVERSITY INNOVATION LIMITED, priority 2017, published 2020).

T1: CXCL1_HUMAN (Homo sapiens, UniProt P09341)
T1 sequence (P09341 35-107): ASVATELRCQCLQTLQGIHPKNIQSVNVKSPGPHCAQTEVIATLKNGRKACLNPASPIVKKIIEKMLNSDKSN

T2: CXCL10_HUMAN (Homo sapiens, UniProt P02778)
T2 sequence (P02778 22-98): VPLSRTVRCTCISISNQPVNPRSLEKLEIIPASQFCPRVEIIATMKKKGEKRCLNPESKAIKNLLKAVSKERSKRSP

T3: CXCL9_HUMAN (Homo sapiens, UniProt Q07325)
T3 sequence (Q07325 23-125): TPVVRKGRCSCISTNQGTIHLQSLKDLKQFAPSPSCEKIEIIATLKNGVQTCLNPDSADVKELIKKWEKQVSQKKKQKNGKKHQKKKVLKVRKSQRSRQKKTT

B1: P1104_IXORI: novel CXC-binding tick CKBP, Ixodes ricinus (protein, listed as Ixodes ricinus)
chain: ESKEASASQGPGKSFKVEFCETNCTENNGVWSGCTGDCICVSVGDSKEGRCMDLGDKVIDTPVAQG
B2: P1229_IXORI: novel CXC-binding tick CKBP, Ixodes ricinus (protein, listed as Ixodes ricinus)
chain: DDEFFTVDYCGMNCTLQQDGSWTPCTQKNAECKCYHESGSSVGLCLSTAYTDFNQFGDPNNSDLDAATPRHPDASSR
B3: P1132_IXORI: novel CXC-binding tick CKBP, Ixodes ricinus (protein, listed as Ixodes ricinus)
chain: LSDEDELFSVEYCGTNCTKQDTGSWTTCSGNCTCYHEDGKKVGLCLSTEYTDFTKFPKPTSEEIANARPLPKREKTLN
B4: P1166_IXORI: novel CXC-binding tick CKBP, Ixodes ricinus (protein, listed as Ixodes ricinus)
chain: GPETKEDKKSDVYELFTVEYCGTNCTLLTNGRWTACTGKKGTCRCYHESGEKVGLCLSTEYTDFSEYPNPKSSEIDAAAPLPRETH
B5: P1077_IXORI: novel CXC-binding tick CKBP, Ixodes ricinus (protein, listed as Ixodes ricinus)
chain: GSKQLIGPQSSTNSIKAEFCDTNCTAGTNGIWNGCSGDCFCTHVGNSTEGRCMKITGFDEYPTSEAEE
B6: P1162_IXORI: novel CXC-binding tick CKBP, Ixodes ricinus (protein, listed as Ixodes ricinus)
chain: LNDEELFTVDYCGTNCTQQPNGSWTTCPGNCSCYHEDGKTDGFCLSTEYTDFTQFPNLTSEEMDAATPRPE
B7: P1096_IXORI: novel CXC-binding tick CKBP, Ixodes ricinus (protein, listed as Ixodes ricinus)
chain: HTTVTGSVEGKPNNPNEDIEVSYCRMNCTVENGVSSACSGDCVCVHRDNEPNGICVEITYFGDFGDPSQDPSIDEAAPRESVSKRRSNGES
B8: P1101_IXORI: novel CXC-binding tick CKBP, Ixodes ricinus (protein, listed as Ixodes ricinus)
chain: HTTVAGSDEDIEVSYCGMNCTVESGKSSKCSPDCVCVHEGNERDGICISITYLGDLGNPLEDPSIDLATPLAPVFQSSK
B9: P1134_IXORI: novel CXC-binding tick CKBP, Ixodes ricinus (protein, listed as Ixodes ricinus)
chain: NEEVFTVEYCGMNCTQKSDGTWTECSGKNKDCRCYHESDAREGLCLSTEYTDFSQFETPSNSDLEAATPRPRKTLYPVRNPHGPKTRGLGYDKRILRDRVKFLI
B10: P1219_IXORI: tick CKBP, Ixodes ricinus (protein, listed as Ixodes ricinus)
chain: ASLAKETEDTTLPARALVDSPDSDNCSSPQLPYFDELTYMPLGFLAVNCTKTCPVGKNGTVVNGNKCIVTWSILDVSTITVLVGSCKNGYCISDGSSECRNITLAGEDSQEEEEEAEEDEEEDDGDEEEDEEEDEEENDDD
B11: P1224_IXORI: tick CKBP, Ixodes ricinus (protein, listed as Ixodes ricinus)
chain: SDLCKMEAESSPFKLPQSSLLDAPDEEGCKYQLLFVEAEGPLVVNCTKDCPNGKIRTVVEGELCIAMVKTSSSGEATGLVGSCKRGSCVKKDDPCRTFTLSEEGDDDEEDEEEEEDEEEDEEEDEEEEEEDEEEED
B12: P1126_AMBCA: novel CXC-binding tick CKBP, Amblyomma cajennense (protein)
chain: KPQILQRTDKSTDSEWDPQTCPETCIPSKNITCSDGCVCVKLGEEEEGTCFNMTGVDWLGSPSDD
modifications: Amblyomma cajennense
B13: P458_IXORI: novel CXC-binding tick CKBP, Ixodes ricinus (protein, listed as Ixodes ricinus)
chain: GSKQPGAAGSSSDSVEAVFCPTNCTKGTNGAWSGCSDDCICVHVGENTEGSCMKFSGDYDYPTPEA
B14: P1080_IXORI: novel CXC-binding tick CKBP, Ixodes ricinus (protein, listed as Ixodes ricinus)
chain: SAGSKGSSAPQSSGDSVVAEFCDTNCTMKKDGKWTECNGDCFCVHVGNETVGRCMRLDGDYDYTSSKTTRRNKKTRNGLCRLDRNRTTVDYPERNTREP
B15: P1100_IXORI: novel CXC-binding tick CKBP, Ixodes ricinus (protein, listed as Ixodes ricinus)
chain: GSKGSSASQSSDNSVVAKFCDTNCTINEGGKWTECKGGCFCVHVGNETVGRCMKLDGDYDYPSPKPEE
B16: P1074_IXORI: novel CXC-binding tick CKBP, Ixodes ricinus (protein, listed as Ixodes ricinus)
chain: GSKESSAHQSSDDSIKAEFCDAKCTMKTDGKWTQCHGGCFCVHVGNETEGRCMRLDGDYDYPSTQPEE
B17: P1095_IXORI: novel CXC-binding tick CKBP, Ixodes ricinus (protein, listed as Ixodes ricinus)
chain: HSPVAGSEVQKLTSDPNDDIDVSYCGMNCTVVNGKSDECSENCKCLHEGDDPKGICVAITYFGDWGDPNDDPKINEATPQTQIFEKKRK

Biological target: T1, CXCL1_HUMAN
Assay: Yeast surface display (YSD) FACS binding
Design: label (chemical)
Conditions: FACS re-test; mean percent shift where several clones
Experimental: (§1) Table 1. Tick CKBPs described in PCT/GB2017/050563 and [17]. Tick peptide sequences isolated in yeast surface display fluorescent-activated cell sorting (FACS) screens using a labelled chemokine. Identity with Evasin-1, 4 or 3 was calculated using BLAST. Abbreviations: IXORI—Ixodes ricinus, RHISA—Rhipicephalus sanguineus, AMBMA—Amblyomma maculatum, AMBPA—Amblyomma parvum, AMBTR—Amblyomma triste, AMBAM—Amblyomma americanum, AMBCA—Amblyomma cajennense, RHIPU—Rhipicephalus pulchellus. Table 2A-C. Binding characteristics of tick CKBPs previously disclosed (PCT/GB2017/050563 and [17]). All members of the human chemokine family[164] are listed in column 1. Binding to human chemokines was determined for 14 tick CKBPs using biolayer interferometry (BLI) with calculated Kd shown as Molar (Moles/Litre). Binding data for 17 other novel tick CKBPs was assayed using yeast surface display[17,166],with positive binding results shown as “YES”. For biolayer interferometry, His-tagged purified tick CKBP was bound to a Ni-NINTA sensor on an OctetRed® 384 system, and then binding to each chemokine listed (with the exception of CCL25, CCL26, CXCL16, CXCL17, CXCL4L1, XCL2) was assayed in a cross-binding screen at a chemokine concentration of 300 nM as described. For those chemokines showing binding to a tick CKBP in the cross-binding screen, binding assays were repeated using different doses of chemokine. Association, equilibrium and dissociation data were analysed using Octet software to create corresponding fitted curves, and used to calculate Kd. For yeast surface display, (YSD) background fluorescence was controlled for by using either an empty vector or by omitting the chemokine (i.e. using streptavidin-Alexa647 alone). An arbitrary threshold of >3 fold over background mean fluorescence intensity was chosen to describe confirmed re-tests. Where binding was detected data are indicated as “YES”. […] For yeast surface display data, empty cells represent chemokines that were not tested. Binding data published in relation to previously described tick CKBPs (Evasins-1, 4 and 3) is also shown for comparison in each of FIGS. 2A-C, with the relevant data obtained from publications: [20-22,32]. Table 3: Neutralisation of human chemokines by tick CKBPs previously disclosed (PCT/GB2017/050563 and [17]). Neutralising activity was determined using a quantitative THP1 cell migration assay in a 96-well Boyden chamber with chemokine in the bottom chamber as described. Cells migrating through to the bottom chamber at 4 hours were counted using flow cytometry in a 96 well plate format. IC50 for neutralisation was determined at the chemokine EC80 dose as determined using a range of tick CKBP concentrations. Data was analysed using GraphPad Prism to determine IC50, which is shown as Molar (Moles/Litre). Empty cells represent experiments not done. Table 4—Other previously described tick CKBPs. Tick CKBPs that were also described in PCT/GB2017/050563 and Singh et al. are indicated in “Notes”. Table 5.—Novel tick CKBPs of the invention. Table 6. […] The peptide sequence prefix indicates the identity, and suffix indicate the tick species as follows: AMBCA, Amblyomma cajennense and IXORI, Ixodes ricinus. […] Certain tick peptides e.g. P1074_IXORI were recovered from screens performed with more than one chemokine. Individual yeast clones recovered from the library were re-tested using a FACS (fluorescence activated cell sorting), experiment. The binding of the peptide to the chemokine was assayed by measuring the percent (%), of yeast cells expressing the given peptide that exceeded a background threshold set by measuring the fluorescence of the yeast library pool treated with streptavidin-[…] alone. When more than one independent yeast clone was isolated for a given peptide-chemokine combination, the mean percent shift was calculated and reported in column 3. […]

Question: How did the “Chemokines bound in yeast surface display and % cells over threshold fluorescence: CXCL1_HUMAN” value turn out when B1 was run?
Answer: CXCL1_HUMAN 65%

Question: B2 was tested. Which “Chemokines bound in yeast surface display and % cells over threshold fluorescence: CXCL1_HUMAN” value did it give?
Answer: CXCL1_HUMAN 66%

Question: Which “Chemokines bound in yeast surface display and % cells over threshold fluorescence: CXCL1_HUMAN” value does the source give for B3 here?
Answer: CXCL1_HUMAN 68%

Question: For B4, which “Chemokines bound in yeast surface display and % cells over threshold fluorescence: CXCL1_HUMAN” value is on record?
Answer: CXCL1_HUMAN 63%

Question: B5 was tested. Which “Chemokines bound in yeast surface display and % cells over threshold fluorescence: CXCL1_HUMAN” value did it give?
Answer: CXCL1_HUMAN 50%

Question: For B6, which “Chemokines bound in yeast surface display and % cells over threshold fluorescence: CXCL1_HUMAN” value is on record?
Answer: CXCL1_HUMAN 72%

Biological target: T2, CXCL10_HUMAN
Assay: Yeast surface display (YSD) FACS binding
Conditions: FACS re-test; mean percent shift where several clones
Experimental: as §1

Question: How did the “Chemokines bound in yeast surface display and % cells over threshold fluorescence: CXCL10_HUMAN” value turn out when B7 was run?
Answer: CXCL10_HUMAN 50%

Question: For B8, which “Chemokines bound in yeast surface display and % cells over threshold fluorescence: CXCL10_HUMAN” value is on record?
Answer: CXCL10_HUMAN 75%

Question: How did the “Chemokines bound in yeast surface display and % cells over threshold fluorescence: CXCL10_HUMAN” value turn out when B9 was run?
Answer: CXCL10_HUMAN 66%

Same assay, conditions: yeast surface display

Question: Which “Binding to CXCL10_HUMAN, YSD” value does the source give for B10 here?
Answer: YES (An arbitrary threshold of >3 fold over background mean fluorescence intensity was chosen to describe confirmed re-tests. Where binding was detected data are indicated as “YES”)

Question: Which “Binding to CXCL10_HUMAN, YSD” value does the source give for B11 here?
Answer: YES (An arbitrary threshold of >3 fold over background mean fluorescence intensity was chosen to describe confirmed re-tests. Where binding was detected data are indicated as “YES”)

Biological target: T3, CXCL9_HUMAN
Assay: Yeast surface display (YSD) FACS binding
Conditions: FACS re-test; mean percent shift where several clones
Experimental: as §1

Question: With B12 as the molecule, how does the “Chemokines bound in yeast surface display and % cells over threshold fluorescence: CXCL9_HUMAN” value read?
Answer: CXCL9_HUMAN 56%

Question: For B13, which “Chemokines bound in yeast surface display and % cells over threshold fluorescence: CXCL9_HUMAN” value is on record?
Answer: CXCL9_HUMAN 37%

Question: How did the “Chemokines bound in yeast surface display and % cells over threshold fluorescence: CXCL9_HUMAN” value turn out when B14 was run?
Answer: CXCL9_HUMAN 49%

Question: How did the “Chemokines bound in yeast surface display and % cells over threshold fluorescence: CXCL9_HUMAN” value turn out when B15 was run?
Answer: CXCL9_HUMAN 55%

Question: B16 was tested. Which “Chemokines bound in yeast surface display and % cells over threshold fluorescence: CXCL9_HUMAN” value did it give?
Answer: CXCL9_HUMAN 35%

Biological target: CXCL12_HUMAN (Homo sapiens, UniProt P48061)
Assay: Yeast surface display (YSD) FACS binding
Conditions: FACS re-test; mean percent shift where several clones
Experimental: as §1

Sequence of CXCL12_HUMAN (P48061 22-93): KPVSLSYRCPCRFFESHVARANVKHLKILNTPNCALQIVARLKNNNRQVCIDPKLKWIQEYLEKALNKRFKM

Question: For B17, which “Chemokines bound in yeast surface display and % cells over threshold fluorescence: CXCL12_HUMAN” value is on record?
Answer: CXCL12_HUMAN 47%

Question: For B14, which “Chemokines bound in yeast surface display and % cells over threshold fluorescence: CXCL12_HUMAN” value is on record?
Answer: CXCL12_HUMAN 53%;
